This note sets out measurements from the nanobody polyreactivity screen of Harvey et al. (2022).

The data set can be described thus: yeast display, Sf9 membrane polyspecificity reagent, FACS + sequencing; frameworks hold sequencing errors. The essentials: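 After 36–48 hours of galactose induction, yeast (Saccharomyces cerevisiae BJ5465) displaying a synthetic nanobody library were stained at 4 °C for 1 hour with 10% biotinylated, detergent-solubilized Sf9 membrane reagent. Streptavidin microbeads enriched the stained cells before FACS sorting into low and high (top ~1%) gates on anti-HA and streptavidin fluorescence. Each clone's polyreactivity label reflects its gate of origin.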
In the case of “QVQLVESGGGLVQAGGSLRLSCAASGLTCTRNAMGWYRQAPGKEREFVAAIRWSAGSTYYADSVKGRFTISRDNAKNTVYLQMNSLTPEDTAVSYCNAALNVSGHYPNDYWGQGTQVTVSS”, the “polyreactivity (PSR sort gate)” value is on record as “low polyreactivity”.
Turning to “QVQLVESGGGLVQAGGSLRLSCAASGLTFADYAMGWYRQAPGKERELVAAISRRGGSTYYADSVKGRFTISRDNAKNTVYLQMNSLKPEDTAVYYCAAYAYDVAFKRYKFDYWGQGTQVTVSS”, the “polyreactivity (PSR sort gate)” value is given as “high polyreactivity”.
As for “QVQLVESGGGLVQAGGSLRLSCAASGLTFAGYAMGWYRQAPGKERELVAAITYSTGRTYYADSVKGRFTISRDNAKTTVYFQMNSLKPEDTAVYYCAALLRGQDRTMDYWGQGTQVTVSS”, the entry is “high polyreactivity”; as for “QVQLVESGGGLVQAGGSLRLSCAASGLTFASYAMGWYRQAPGKERELVAAISSSGRTYYADSVKGRFTISRDNAKNTVYLQMNSLKPEDTAVYYCATRGLSRYYDYYYWGQGTQVTVSS”, “high polyreactivity”; as for “QVQLVESGGGLVQAGGSLRLSCAASGLTFASYAMGWYRQAPGKERELVARISRSGGSTYYADSVKGRFTISRDNAKNTVYLQMNSLKPEDTAVYYCAADYIFRRYPVGGIYDYDYWGQGTQVTVSS”, “high polyreactivity”.
As for “QVQLVESGGGLVQAGGSLRLSCAASGLTFAWYAMGWYRQAPGKARELVAVISNGGSTNDADSVKRRFTISRDNAKNTVYLQMNSLKPDDTAVYYCAAGWVWSGNDYYYWGQGTQVTVSS”, the entry is “low polyreactivity”; as for “QVQLVESGGGLVQAGGSLRLSCAASGLTFAYYAMGWYRQAPGKDRELVAAISWNGGRTYYADSVKGRFTISRDNAKNTVYLQMNSLKPEDTAVYYCAAQVTSSFYWGQGTQVTVSS”, “high polyreactivity”; as for “QVQLVESGGGLVQAGGSLRLSCAASGLTFAYYAMGWYRQPPGKERELVAAITSGDGTNYADSVKGRFTISRDNAKNTVYLQMNSLKPEDTAVYYCATDTWSPGYDYWGQGTQVTVSS”, “low polyreactivity”.
“QVQLVESGGGLVQAGGSLRLSCAASGLTFAYYVMGWYRQAPGKERELVATITRGGDTYYADSVKGRFTISRANAKNTVYVQMNSLTPEDTAVYYCNAVWRVKYRRGLDYWGQGTQVTVSS”: the “polyreactivity (PSR sort gate)” value is “high polyreactivity”.
For “QVQLVESGGGLVQAGGSLRLSCAASGLTFAYYVMGWYRQAPGKERELVATITRGGDTYYADSVKGRFTISRDNAKITVYLQMYSLKPEDTAVYYCNAYLRSGSMDYWGQGTQVTVSS”, the “polyreactivity (PSR sort gate)” value was “high polyreactivity”.
On to “QVQLVESGGGLVQAGGSLRLSCAASGLTFDGNTMGWYRQAPGKERELVAAISIDGGNTYADSVKGRFTISRDNAKNTVYLQMNSLKPEDTAVYYDYWGQGTEVTVSS”, for which the “polyreactivity (PSR sort gate)” value was “low polyreactivity”.
Consider “QVQLVESGGGLVQAGGSLRLSCAASGLTFDNNAMGWYRQAPGTERELVAAISYRGSSTYYADSVKGRFTISRDNAKNTVYLQMNSLKPEDTAVYYCAADVVDLGRFDYWGQRTQVTVSS”, for which the “polyreactivity (PSR sort gate)” value is listed as “low polyreactivity”.
In the case of “QVQLVESGGGLVQAGGSLRLSCAASGLTFDPYAMGWYRQAPGKERELVADISDGASTYYADSVKGRFTMSRDNAKNTVYLQMNSLKPEDTAVYYCNVDVGWYAFTDAYDYWGQGTHVTVSS” it was “low polyreactivity”; in that of “QVQLVESGGGLVQAGGSLRLSCAASGLTFDRYAMGWYRQAPGKERELVAAISGSGSSTYYADSAKGRFTISRDNAKNTVYLQMNSLKPEDTAVYYCAADRDLGYDTRYNYWGQGTQVTVSS”, “low polyreactivity”.
As for “QVQLVESGGGLVQAGGSLRLSCAASGLTFDYYAMGWYRQAPGKERELVAAIDWSGGSTYYADSVKGRFTISRDNAMNTVYFQMNSLKPEDSAVYYCATESDDSGMDYWGQGTQVTVSS”, the entry is “low polyreactivity”.
For “QVQLVESGGGLVQAGGSLRLSCAASGLTFDYYAMGWYRQAPGKERELVAAISIGGSTNYADSVKGRFTISRDNAKNNVYLQMNSLKPEDTAVYYCAAQGYLRLRTHFNYWGQGTQVTVSS”, the “polyreactivity (PSR sort gate)” value is given as “low polyreactivity”.
As for “QVQLVESGGGLVQAGGSLRLSCAASGLTFDYYVMGWYRQAPGKERELVATISWSGDITYYADSVKGRFTISRDNAKNTVYLQMNSLKPEDTAVYYSATDKSYSSWSAQYDYWGQGTQVTVSS”, the entry is “low polyreactivity”; as for “QVQLVESGGGLVQAGGSLRLSCAASGLTFEWYAMGWYRQAPGKERELVAAISWNGGSTYYADSVKGRFTISRDNAKNTVYLQMNSLKPEDTAVYYCATSSPRRYYWGQGTLVTVSS”, “high polyreactivity”; as for “QVQLVESGGGLVQAGGSLRLSCAASGLTFEYNAMGWYRQAPGKERELVAAITSGDNTYYADSVKGRITISRDNAKNTVYLQMNSLKPEDTAVYYCAKYRWNWRYVSRGDSWGQGTQVTVSS”, “high polyreactivity”.
On to “QVQLVESGGGLVQAGGSLRLSCAASGLTFFRNAMGWYRQAPGKEREFVAGITSTDGSTYYADSVKGRFTISRDNAKNTVYLQMNSLKPEDTAVYYCAAAYRVRGRTYDAWGQGTQVTVSS”, for which the “polyreactivity (PSR sort gate)” value is “high polyreactivity”.
In the case of “QVQLVESGGGLVQAGGSLRLSCAASGLTFFYYAMGWYRQAPGKERELVAGISRSGGSTYYADSVKGRFTISRDNAKNTVYLQMKSLKPEDTAVYYCAKRTLVASYIYREGEYWGQGTQVTVSS” it was “high polyreactivity”; in that of “QVQLVESGGGLVQAGGSLRLSCAASGLTFGAYAMGWYRQAPGKEREFVAAITYSGGSTNYADSVKGRFTISRDNAKNTVYLQMISLKPEDTAVYYCNAGYYSPWAFYPYDYWGQGTQVTVSS”, “high polyreactivity”.
As for “QVQLVESGGGLVQAGGSLRLSCAASGLTFGAYAMGWYRQAPRKEREFVAAITYSGGSSNYADSVKGRFTISRDNAKNTVYLQMNSLKPEDTAVYYCNAGYYSPWAFYPYDYWGQGTQVTVSS”, the entry is “high polyreactivity”; as for “QVQLVESGGGLVQAGGSLRLSCAASGLTFGDYALGWYRQAPGKDRELVAVISRSGGSTYYADSVKGRFTISRDNAKNTVYLQMNSLKPEDTAVYYCAAEYYSYRYDGDYWGQGTQVTVSS”, “low polyreactivity”; as for “QVQLVESGGGLVQAGGSLRLSCAASGLTFGDYVMGWYRQAPGKERELVATITSDGGTTYADSVKGRFTISRDNAKNTVYLQMNSLKPEDTAVYYCAAGVTGPSDDYDYWGQGTQVTVSS”, “low polyreactivity”.
As for “QVQLVESGGGLVQAGGSLRLSCAASGLTFGGNAMGWYRQAPGKERELVAAISWSDDTTDYADSVKGRFTISRDNGKYTVYLQMNSLKPEDTAVYYCAARLPFEHVDYWGQGTQVTVSS”, the entry is “low polyreactivity”; as for “QVQLVESGGGLVQAGGSLRLSCAASGLTFGHYAMGWYRPAPGKERELVAAITSGGRTYYADSVKGRFTISRDNAKYTVYLQMNSLKPEDTAVYYCATRGPRYRYYYWGQGTQVTVSS”, “high polyreactivity”; as for “QVQLVESGGGLVQAGGSLRLSCAASGLTFGIYAMGWYRQAPGKERELVATISWRGGSTYYADSVKGRFTISRDNAKNTVYLQMNSLKPEDTAVYYCNADNEYRLGYWDDSCGQGTQVTVSS”, “low polyreactivity”.
On to “QVQLVESGGGLVQAGGSLRLSCAASGLTFGLNALGWYRQAPGKERELVAAITWSGGSTYYADSVKGRFTISRDNAKNTVYLQMNSLKPEDTAVYYCATDNWSVNGGYNYWGQGTQVTVSS”, for which the “polyreactivity (PSR sort gate)” value is “low polyreactivity”.
As for “QVQLVESGGGLVQAGGSLRLSCAASGLTFGLNAMGWYRQAPGKEREVVAAITWSGGSTYYADSVKGRFTISRDNAKNTVYLQMNSLKPEDTAVYYCATDNWSVNGGYNYWGQGTHVTVSS”, the entry is “low polyreactivity”; as for “QVQLVESGGGLVQAGGSLRLSCAASGLTFGLNAMGWYSQAPGKERELVAAITWSGGSTYYADSVKGRFTISRDNAKNTVYLQMNSLKPEDTAVYYCATDNLSVNGGYNYWGQGTQVTVSS”, “low polyreactivity”; as for “QVQLVESGGGLVQAGGSLRLSCAASGLTFGPYAMGWYRQAPGKERELVAAITSGGNTNYADSVKGRFTISRDNAKNTVYLQMNSLKPEDTAVYYCATSYYLAYRSITPYDYWGQGTQVTVSS”, “low polyreactivity”.
With “QVQLVESGGGLVQAGGSLRLSCAASGLTFGSYAMGWYRQAPGKERELVAAISRSGGSTYYADSVMGRFTISRDNAKNTVYLQMNSLKPEDTAVYYCNAVNRYYAPTDRRVGYDYWGQGTQVTVSS”, the “polyreactivity (PSR sort gate)” value is recorded as “high polyreactivity”.
In the case of “QVQLVESGGGLVQAGGSLRLSCAASGLTFGSYAMGWYRQAPGKERELVAAISSRGGTTYYADSVKGRFTISRDNAKNTVYLQMNSLKPEDTAVYYCAARSRRYSYDNLGHWGQGTQVTVSS” it was “high polyreactivity”; in that of “QVQLVESGGGLVQAGGSLRLSCAASGLTFGTNAMGWYRQAPGKERELVAAISTSSGSTYYADSVKGRFTISRDNAKNTVYLQMNSLKPEDTAVYYCAAVTVTKMSYYRYYYWGQGTQVTVSS”, “low polyreactivity”; in that of “QVQLVESGGGLVQAGGSLRLSCAASGLTFGYYVMGWYRQAPGKERELVADINFSGGSTYYADSVKGRFTISRDNAKNTVYLQMNSLKPEDTAVYYCNGVVYRFTVSTGYESWGQGTQVTVSS”, “low polyreactivity”.
As for “QVQLVESGGGLVQAGGSLRLSCAASGLTFHDYAMGWYIQAHVKERELVAGINSGGSTNYADSVKGRFTISRDNAKNTVYLQMNSLKPEDTAVYYCARGPQYDEGEYWGQCTQVTVSS”, the entry is “low polyreactivity”; as for “QVQLVESGGGLVQAGGSLRLSCAASGLTFHRYAMGWYRQAPGKERELVADISSGDSTNYADSVKGRFTISRDNAKNTVYLQMTSLKPEDTAVYYCNTDGYIYRYRFDYWGQGTQVTVSS”, “low polyreactivity”; as for “QVQLVESGGGLVQAGGSLRLSCAASGLTFHYYAMGWYRQAPGKERELVAVISSGGSTYYADSVKGRFTISRDNAKNTVYLQMNSLKPEDTAVYYCAKLSLSWDGYYQYDYRGQGTQVTVSS”, “low polyreactivity”.
Regarding “QVQLVESGGGLVQAGGSLRLSCAASGLTFIPNAMGWYRQAPGKERELVAAISGTGGSTYYADSVKGRFTISRDNAKNTVYLQMNSLKPEDTAVFYCAARAYLGYYSWGQGTQVTVSS”, the “polyreactivity (PSR sort gate)” value is “high polyreactivity”.
As for “QVQLVESGGGLVQAGGSLRLSCAASGLTFIRYAMGWYRQAPGKERELVASISRGGSTYYADSVKGRVTISRDNAKNTVYLQMNSLKPEDTAVYYCAAQHVGHNYYNSGFYYWGQGTQVTVSS”, the entry is “low polyreactivity”.
